Our source for the KD with C646 values is PMC8850660, “The P300 acetyltransferase inhibitor C646 promotes membrane translocation of insulin receptor protein substrate and interaction with the insulin receptor” (The Journal of Biological Chemistry, 2022).

The assay concerns the target unphosphorylated beta subunit of the insulin receptor (IRβ), recombinant (UniProt P06213). The assay can be described thus: SPR; Biacore T200, unphosphorylated IRβ immobilised on a CM5 chip; same amounts of IRS1 or IRS2 injected together with different (nM) concentrations of C646; HBS-P buffer (10 mM Hepes, 150 mM NaCl, 0.05% P20, pH 7.4), 30 μl/min, 25 °C; global fit to 1:1 Langmuir model. A general note: In SPR one partner is held on a chip, and binding of the other changes the refractive index at the surface.

Chain of unphosphorylated beta subunit of the insulin receptor (IRβ), recombinant (P06213 763-1382): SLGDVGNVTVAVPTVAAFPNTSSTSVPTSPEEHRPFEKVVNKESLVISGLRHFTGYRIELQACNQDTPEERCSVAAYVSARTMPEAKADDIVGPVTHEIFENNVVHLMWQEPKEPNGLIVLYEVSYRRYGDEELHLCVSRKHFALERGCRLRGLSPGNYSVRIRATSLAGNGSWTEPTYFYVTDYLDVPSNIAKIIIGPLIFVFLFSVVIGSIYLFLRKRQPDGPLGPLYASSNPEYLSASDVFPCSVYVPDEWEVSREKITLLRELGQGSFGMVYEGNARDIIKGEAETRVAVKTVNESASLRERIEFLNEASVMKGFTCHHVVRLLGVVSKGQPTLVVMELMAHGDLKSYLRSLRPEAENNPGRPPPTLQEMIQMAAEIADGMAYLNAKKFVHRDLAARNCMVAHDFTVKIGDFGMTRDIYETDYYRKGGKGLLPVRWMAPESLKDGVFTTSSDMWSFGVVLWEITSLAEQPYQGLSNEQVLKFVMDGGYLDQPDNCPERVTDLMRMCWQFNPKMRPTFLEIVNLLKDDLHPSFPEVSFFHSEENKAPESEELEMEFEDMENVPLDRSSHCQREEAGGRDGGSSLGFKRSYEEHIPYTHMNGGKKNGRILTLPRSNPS

As for “purified IRS1 protein (insulin receptor substrate 1) (from UniProt P35569 1-1233) (natural protein)”, the KD with C646 stood at 2.86e-13. Then “purified IRS2 protein (insulin receptor substrate 2) (from UniProt P81122 1-1321) (natural protein)”, with 7.6e-12.
